According to the supplement of paper PMC11136658:

System: peptide library, one residue held at a place counted from the Y acceptor
Experiment: relative phosphorylation of the sub-library (ratio to the mean residue at this position); higher = residue favoured
How it was run: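 Biotinylated Tyr-centred peptide library mixtures, each fixing one residue at one position from −5 to +5, were incubated with purified recombinant kinases in 384-well plates for 90 min with 50 μM ATP plus γ-32P-ATP. Streptavidin membranes captured the peptides, which were rinsed and quantified by phosphorimaging and ImageQuant. At each position, intensities were divided by the sum of the 18 randomized residues (16 for the Ser/Thr-free library) and multiplied by that number. Each value is phosphorylation relative to the mean randomized residue.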

Chain of DDR1, construct: aa444-end, human (Q08345 444-913, looked up): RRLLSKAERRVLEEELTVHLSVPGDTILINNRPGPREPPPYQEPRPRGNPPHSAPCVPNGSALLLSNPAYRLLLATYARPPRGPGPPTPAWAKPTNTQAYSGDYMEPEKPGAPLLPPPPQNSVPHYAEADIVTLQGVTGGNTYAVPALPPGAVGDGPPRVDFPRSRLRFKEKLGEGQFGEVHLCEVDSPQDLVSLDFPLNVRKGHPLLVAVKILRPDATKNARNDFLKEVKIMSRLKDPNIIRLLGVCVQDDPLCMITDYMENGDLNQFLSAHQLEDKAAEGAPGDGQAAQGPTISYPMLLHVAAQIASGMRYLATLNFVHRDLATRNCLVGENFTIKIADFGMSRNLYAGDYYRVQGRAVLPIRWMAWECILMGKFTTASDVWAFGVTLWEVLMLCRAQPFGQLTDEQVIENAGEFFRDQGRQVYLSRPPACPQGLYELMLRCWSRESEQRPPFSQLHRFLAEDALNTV

DDR1, construct: aa444-end, human (from UniProt Q08345)
relative phosphorylation
Details | at +1 | at +2 | at +3 | at +4 | at +5 | at -1 | at -2 | at -3 | at -4 | at -5
A fixed | 1.61 | 0.998 | 0.762 | 0.858 | 0.675 | 1.07 | 1.08 | 1.02 | 1.18 | 1.16
D fixed | 0.629 | 0.815 | 0.717 | 0.883 | 0.561 | 1.35 | 0.723 | 0.719 | 0.772 | 0.767
E fixed | 0.665 | 1.36 | 0.716 | 0.964 | 0.549 | 0.785 | 0.748 | 0.717 | 0.798 | 0.759
F fixed | 1.62 | 1.04 | 1.38 | 2.72 | 3.66 | 1.13 | 0.804 | 1.18 | 1.16 | 1.38
G fixed | 0.639 | 0.629 | 0.633 | 0.621 | 0.701 | 0.7 | 1.07 | 0.946 | 1.05 | 1.06
H fixed | 1.07 | 0.986 | 1.16 | 1.19 | 1.03 | 1.14 | 1.24 | 1.45 | 1.13 | 1.13
I fixed | 0.955 | 1.1 | 1.63 | 1.01 | 1.49 | 0.938 | 0.721 | 0.828 | 0.716 | 0.728
K fixed | 0.817 | 0.809 | 0.736 | 0.743 | 0.623 | 0.81 | 1.44 | 1.35 | 1.4 | 1.34
L fixed | 0.781 | 1.42 | 1.56 | 0.985 | 1.21 | 0.958 | 0.794 | 0.773 | 0.81 | 0.736
M fixed | 0.972 | 1.26 | 1.58 | 0.982 | 1.08 | 0.825 | 0.79 | 0.82 | 0.949 | 0.816
N fixed | 0.846 | 0.891 | 0.755 | 0.75 | 0.586 | 2.03 | 1.24 | 1.05 | 0.924 | 1.03
P fixed | 0.677 | 0.738 | 0.619 | 0.752 | 1.05 | 0.971 | 1.18 | 0.871 | 1.05 | 1.02
Q fixed | 0.916 | 0.888 | 0.74 | 0.806 | 0.598 | 0.934 | 1.05 | 0.96 | 1.09 | 1.02
R fixed | 0.963 | 0.845 | 0.784 | 0.807 | 0.732 | 0.806 | 1.63 | 1.49 | 1.48 | 1.44
S fixed | 0.974 | 0.796 | 0.602 | 0.56 | 0.617 | 0.92 | 1.11 | 0.975 | 0.835 | 0.896
T fixed | 1.14 | 0.912 | 0.744 | 0.678 | 0.667 | 0.835 | 0.904 | 0.91 | 0.829 | 0.853
V fixed | 1.72 | 1.29 | 1.46 | 1.25 | 1.02 | 0.917 | 0.73 | 0.786 | 0.798 | 0.823
W fixed | 1 | 1.22 | 1.43 | 1.44 | 1.14 | 0.886 | 0.747 | 1.15 | 1.03 | 1.04
pThr fixed | 0.793 | 1.37 | 0.799 | 1.1 | 0.686 | 0.743 | 0.653 | 0.678 | 0.726 | 0.775
pTyr fixed | 1.03 | 2 | 0.914 | 1.43 | 0.653 | 0.867 | 0.713 | 0.849 | 0.908 | 0.953
